Data from the DeepSol protein solubility set.

Experiment: soluble on expression in E. coli; label from the status in PepcDB or PDB records

**Q.** For “MGSDKIHHHHHHMINRYLGDPPFESPERRNRLPERHKVKAGFSPTIDCAVLIAAAEKGFAADEGIELELFREQSARAVLAALGGDDIHIGHLPAPVPVGSAVGLDDLPADIVGVFTLSLGGSATAVSHGFYDELYREGMKLPDPAAFGRAMARVCAARRAAGKNPPVFAVEDIVSTPFYTLRYLLGSCGVLLGRDMEIIEALPKAMPALLESGKVDALCTAEPAGSAVVLGGAGRIVTTGALIWHNAPEKILAVKKGWAEENATLLEGLLRALYRAGEWCANDANIEELAGILAAPQYIDENGEFLLPALTGYISTSQRDMQRFQEFFVTSAKAANFPWQSQALWFFSQMLRWGEVPAERRLEPTMAEAARNAYRPDIFRKAMKPLFVPVPGANLKLEGTLKEPVHVGASRTGLVLGPDCFFDGRVFDPETLEMDDEI”, which “soluble on expression in E. coli” value is on record?
**A.** not soluble

**Q.** With “MAHHHHHHSLKEAEVLKYEAFTSSPGKGNPAGVVLQGDDYTEDEMQIIAERAGYSETSFIRKSESADLELRYFTPGHEMNLCGHATVASLYALCEKGMLESGKTYSIQTKAGILPVKISEKDGRIHITLEQASPQFKPFTGDRKKLADALGITDEDFHEDLPIVFGSTGIWTAIVPLKSLEASKKMVPDNKQFPEVLVDLPKASVHPFTFETVHPDSDLHGRHFSSPYSGTIEDPVTGTASGVMGAYMKHYGNAEQHKFIIEQGQEIGKDGKVEIEMNEAGGHVKVNMTGTAVYSETRILKIEG” as the sequence, how does the “soluble on expression in E. coli” value read?
**A.** not soluble

**Q.** Which “soluble on expression in E. coli” value does the source give for “MADRPIEIVDRQNVLTVHLPGTYTVMYDARYCYVSYIPVSETVAEFTLTGFKYPLTNCHISRGSTLCISNELIQSSGTFSFSEGILMMIRSSDSLEHHHHHH” here?
**A.** not soluble

**Q.** For “RHQVESSPLFRALALRCNQTMVTLRSANMFHAYGFLAKVFEILAKHKISVDLITTSEISVSLTLDQTDTSGGAPQLPQAAREELEELCKVEVEHDLCLVALIGNKMSERKGYAKQVFGTLEDLNLRMICYGASPHNLCFLVNESVAKQAIQKLHTELFEQ”, which “soluble on expression in E. coli” value is on record?
**A.** not soluble

**Q.** With “PFEGNATEVFTDGYSMLYSLMKEISKAKHHIHLQFYIFEDDPAGRLLRDLLIDKARQGVEVRLLYDDVGCWKVPHAFFDEMRGAGIEARSFLKVRFPLFTSKVNYRNHRKIVVIDGRVAYTGGMNIALRYMKGFPWGIWRDTHIKIEGKAVYGLQTAFLTDWYVVDRTLITSSRYFPEVGIFGKALIQIVTSDP” as the sequence, how does the “soluble on expression in E. coli” value read?
**A.** not soluble

**Q.** With “MRKMKSLYLAIQQHESRRWSPVAKVTKNGGVYRLVYTKGAWEVPGFSGFARMEDLYQEYRSAEIFPILKNRTLPRSRPEYQNYILWLGLSPEEHDELDELARSGGIRATDQIELIPAPERKEDGSFEAFFFVRGISYIPGTADIDLKIGDRLFVMKDFQNEQDSAALLLRTGDPVSVVGYAPRYYSHDLSRLAELCPPQDLLVTVERLNNNAPAAYKVLCKVVAPWPAGFDFFGSHVFDEVPKAPVSLEHHHHHH” as the sequence, how does the “soluble on expression in E. coli” value read?
**A.** not soluble

**Q.** With “AIAEGEYRLTRSYAVVDITAQVDDSAILEPFACVMARARIGPRTRVGAHSVVGVGVSVGADCCIYHHVTLLNCDIGDRCVIHSGVAIGQDGFGFEVDQQTGKVRKKPQELSVRIGNEVEIGANTCIDRGSWRDTLIEDAVKIDNLVQIGHNVQVGANTFICGQAGVAGSTKIGRYCRFGGRSGAVDHLEIGDHVDVAANSVLTRNAPGHAVYAGFPAMPMREWRHQQVTLRRLSRAGKRQVDVSADDPEFPK” as the sequence, how does the “soluble on expression in E. coli” value read?
**A.** soluble

**Q.** With “MGSDKIHHHHHHMNSGEYKYIWQASDWPNWRFDLAALAEPMAEVSRAQGLLMGRLADVGMALRDQASLAALTEDVVKTSEIEGEQLNVESVRSSIARRLGVDIGALAPVDRHVEGVVEMVLDATANCQALVSRERLFGWHAALFPTGYSGLSKINVGGWRDDATGPMQVVSGPIGRQRVHFEAPPADRLETETSRFLDWLNGTLNEPPLLKAGLGHLWFVTLHPFDDGNGRIARAIGDLLLARADGSPQRFYSLSAQIQRERKAYYDILERTQKRSMDVTEWLAWFLDTLHRAVDQAQHTLDAVLTKARFWQRWATTPLNERQVKLLNKLLDGFEGKLTSSKWAAIAKCSPDTALRDINDLLTRGVLRKSDAGGRSTSYELNDLPE” as the sequence, how does the “soluble on expression in E. coli” value read?
**A.** not soluble

**Q.** Which “soluble on expression in E. coli” value does the source give for “MRRNRFLAPLLVAASLLATAPAHGQPAPAAVLASDEAQRIALDAYVYVYPLVVMDLSRRQDTGGKGPGHAPANTFAHERRLPQADFRRLPRPNFDMLRSSAWLDLSTGPVVISTPETHGRLYTLSVLDMWTDIFAVLGKRTTGTARGNHAIVPPGWTGVLPRGMHRIDAPTAQVQARLYVQTGGSSEYPGVHAVQDGFILTPLAEWNQQAQSVRLRSDPDLDALTPAQQQVEGMNAEDYFGYAAELLRKHAPHATDQPMLARLRRLGIAPGQQLAFARLPTTVQQALRHAVRNGPQALRDSLPATGSLANGWQADADGAGVYGNAYLRRAVTTQARLGASLPEDVTAMLLLADAAGRPLEGGQRYVLRFEADQLPPAGALWSLNAYDAQGYPVGNGFNRYALGDRDPVRYNPDGSLELYLQRDPPGPDDQANWLPTGEGAPGVILRIYLPQASVLAGRWVPPAARRVEAADDAAALEHHHHHH” here?
**A.** not soluble

**Q.** For “KLKARSIKIQRRMDAILLRMPIFGDIVRKGTIARWGRTTATLIAAGVPLVDVLDSTAGAAGNLIYEEATREIRTRVIQGLSMTSGMRATELFPNMMLQMSSIGEESGSLDDMLNKAAEFYEDEVDNAVGRLSAMMEP”, which “soluble on expression in E. coli” value is on record?
**A.** not soluble

**Q.** For “MTKTMIRLASEQDAEKLQQLMHEAFTPLRELGIDWPSVNANLDAVKENIDKNTTFVMTIDDEIISTITVRYPWGSVKSISGYPFVWWFATNPEYEGKGYGSQLLTYVEEAFLRDTLKSAAVTLGTSARLHPWLLKIYEKRGYEIYSEHENDDGDLGVIMRKVLIPERFDETILGQPPF”, which “soluble on expression in E. coli” value is on record?
**A.** not soluble

**Q.** Which “soluble on expression in E. coli” value does the source give for “MDTSQKYRSNNEVDSPQIEHDKQALPSIESLYWGLQQNQQIQGIEQTGEPNGDNQPPQLVIDQLSYDQQQQQPKQNCFDTHGNMDDNRGLYNLPQGAENGSGHLVATESHQLHPPNYNLQQAQTPPPTRHSQYVDAAPQAYGSGQLVPENQRQPESAPDRPYQIMNVGCNPQSAQQHAQMEIPTMSHQLIGTCHNWQSGSQQGTSQNRKDFAGMQSCYGKDQHHQSALNGYHQLQAQPNLYPQHVSNQRPQWAMDQLGYYQQHQQQGPTWSDQNGNEGDNGGLYNHPQGAENGSGHLAATESHQLLPPSNNLQQVQIPAPTRHSQYVGASHLAYGSGQLVPENQLQPEPAPDRSYRKMNVGCNSQYAQQHAQMDQVIGTCHNCQSDSQQGTSQNRDNLAGMKGCCVKDQYHEPAPSGYHPPQAQSNCYPNHPPNPNMNAGDQDRQHVQLNFYTDPGFQQNSHVPYEMQQGFQTTGMQGSYQQNNQPELLFDSNNGNQTVNNAPNGNYQEPVYPLLQEGPTWNNNDNHDYFPSDDSMSQTSQEPVSVESIRKKTKRAKNKLEARKSLQKKKDDLKASRKSWEEVKINHNNILSSNNSNEENIKTAFDQVLYPCFTNQQVIGTFNIIRSYDEVQEGFAQFENDKQNIISKVDYLMKTDRNLKKLRMAKEVSEKQWEQFETDKKNRKEDDKKNKINGGNKLNGKTKIVSSITIATRCSRSKDKKETDAFKHDAKVLKFESSKQTQIKLCLKKYCDKFYPGVRMLLQHNWKFLRDNALHSGQSVQLEKLIECLKTFHLTEHAEKEHNLENS” here?
**A.** not soluble

**Q.** Which “soluble on expression in E. coli” value does the source give for “MGSDKIHHHHHHMANVTPEIVKALFTGFGKNFKDGLAKAPSQYTAIATVIKSTTASNTYAWLGQMPKLTEWIGKRAITAIQSHGYAIVNKDWASGVEIKRTDIEDDNIGVYSPLVEELGRSAGEQPDELVFGALKGGFTTECYDKQYFFDTDHPVGANPDGTSPTSVSNITDDGTSVTADGAWYLLDCSRALKPLIFQQRKPATPAQMTDANAQKVFEDNVYTRCNVGYGFWQMAHAVKGKLNAENLWKAIKAMRAVHSDGGHKLGIKPTHIVVPTSLQEEAVKLLERELRVEDGAAVDNEFKNMKLTLIVADYL” here?
**A.** not soluble

**Q.** For “MADRANNDDDVDRQPLPIADDADDDVDGIDEMFNNEDEDPEDEEGENLFGDDMERDYREQPELDQYSESGMDDASDVGSLSVSARRAAEREMAQRDQLLDDDALMYEDGDSEEVDTRRRGRGRRGRGDAADDDSVPMEEEDIPVDILENIRGRTIRDHVSDEAVAKEIERRFKNFLRSFHEPGNKQTKYIQMIKSMAADNRESLEVSFTDLSDDNGEQNISYFLPEAPNEMLAIMDRAATEVVMNMYPFYSRVCNEIKVRISQLPVEEDIRMLRQVHLNMLIRTAGVVTIASGILPQLAVVKYDCVACGYLLGPFVQQNDEEVRPTICPSCQGKGPFELNVENTVYHNYQRITMQESPNKVAAGRLPRSKDVILLGDLCDSCKPGDEIEVTGVYTNNFDGSLNYKQGFPVFNTLIHANHITNKDKMASDQLTDEDIKAIRELSQDPNISQRVFSSIAPSIYGHDDVKRAIALALFRGEAKNPGAKHRLRGDINVLLCGDPGTAKSQFLRYAAHIAPRSVLTTGQGASAVGLTAYVQRHPVTREWTLEAGAMVLADKGVCLIDEFDKMSDQDRTSIHEAMEQQSISISKAGIVTSLHARCTVIAASNPIGGRYNPTRTFAENVDLTEPILSRFDVLCVIRDSVDSVEDERLAKFVVGNHRTHHPDAKKIVKEGDELEEDQMDERTGVRLIPQDLLRKYIIYAREKCHPTLPEQHSEKFSNIFAQMRKESMATGSVAITVRHVESMIRLSEAHAKLHLRSYVNDEDCAAAIRVMLESFVNTQKASIMRMMKKTFSRHLTENRSANELLLFILKQLIRQQMHYATARAAAGTILQSVTIPESEFIEKAQQLRIENVKPFYTSEIFASNNFLYDPSKKTIVQEIF”, which “soluble on expression in E. coli” value is on record?
**A.** not soluble

**Q.** Which “soluble on expression in E. coli” value does the source give for “GPGSMPGGGLEVIGTPALPHPSSASDADDAAAGCSFRLSQSGGDPRYVSSRVAGRMQDARHGAESRLVDGTATFLDFLAETSVERPLRVRLRQRARQSFVFFNLETAIDCLNLSWEAYAVQESRGDDFISTGIQVNAAEVPRAALGFVERVAMALLGLCFNPSPHVCHALDDSEEDAAAAISFTSGGDRTPLLDERRASRSRSPVRAPLGAEVASSATRATQADLAAAALFPHCGSSSTRSGSCQPFFRQPAPAASATSPCFGGTSSPPGAAAAGASSFSSSPSNRIGSFPTSASAATANAGADAARLPHMNPEQYGYHRVAVLEARGVQVVVVRMDTSGSCPVHIGKVPRLVIAFRGTDNVANVMEDIRFRQRTWKEMKTPTLSGRASVHSGFLELWMSLKERVIDVVLRELRSQCTPLEGSNAEVSAAGTTGHAGEGASTVAGCSPSQAGHDMFHATVPFSDIWSLRRNGGGRGCADTRQGAFGSEQGGFEGFMRVYVTGHSLGGALASLCAYTLRRMLLLIQYPEPDLVVYTFGQPRIGNFVFKQYYNRAVPCTFRVVNESDAVSGFNFFGGHHVGVQVNIDRHGNYICKPMYIERMFRPTRGRGFALANHAISAYASSLNAMANVYTHGACPLRCRQPYMGEIVSVSSTNSE” here?
**A.** not soluble

**Q.** For “MGQTVNEDSMDVKKENQEKTPQSSTSSVQRDDFHWEEYLKETGSISAPSECFRQSQIPPVNDFKVGMKLEARDPRNATSVCIATVIGITGARLRLRLDGSDNRNDFWRLVDSPDIQPVGTCEKEGDLLQPPLGYQMNTSSWPMFLLKTLNGSEMASATLFKKEPPKPPLNNFKVGMKLEAIDKKNPYLICPATIGDVKGDEVHITFDGWSGAFDYWCKYDSRDIFPAGWCRLTGDVLQPPGTS”, which “soluble on expression in E. coli” value is on record?
**A.** soluble

**Q.** Which “soluble on expression in E. coli” value does the source give for “MEASKYVGQGFQPPAEKDAVEFAKKHKDKIAKRGEQFFMDNFGLKVKATNVVGSGDGVEVFVHCDDHDIVFNASIPFDKSIIDSDSSLRSEDKGDDMSTLVGTVLSGFEYRAQKEKYDNLYKFFKENEKKYQYTGFTKEAINKTQNSGYENEYFYIVANIPTLQEYRKYYEPLIKKNNLNFKKGMKQARKGVGYKAAIEVHTTLFSRSSNFSKDKKLDDVIDLSESTKKLHLNFENTKIFLQLAKSTISTNRVNYSDNESIRIEVELEHHHHHH” here?
**A.** not soluble

**Q.** For “MGSDKIHHHHHHAGELNLYSMNTGSYVYHMTGNHGQYNEHFNNNFFSVERKFSQDSKYSVLVGTMKNSFDDRCLTLGVRRDWLKNDTGWVLKGVYAYTGEFFFDAFSHCGDSGTYRTAKKITGIGFSPYLYHGLQYNFTDYFGVEGGIIVPAIFVMSVQWSFR”, which “soluble on expression in E. coli” value is on record?
**A.** not soluble
